Data from the DeepSol protein solubility set.

Test: soluble on expression in E. coli; label from the status in PepcDB or PDB records

| Sequence | soluble on expression in E. coli |
| --- | --- |
| MKKKIESYQGAAGGWGAVKSVANAVRKQMDIRQDVIAMFDMNKPEGFDCPGCAWPDPKHSASFDICENGAKAIAWEVTDKQVNASFFAENTVQSLLTWGDHELEAAGRLTQPLKYDAVSDCYKPLSWQQAFDEIGARLQSYSDPNQVEFYTSGRTSNEAAFLYQLFAREYGSNNFPDCSNMCHEPTSVGLAASIGVGKGTVLLEDFEKCDLVICIGHNPGTNHPRMLTSLRALVKRGAKMIAINPLQERGLERFTAPQNPFEMLTNSETQLASAYYNVRIGGDMALLKGMMRLLIERDDAASAAGRPSLLDDEFIQTHTVGFDELRRDVLNSEWKDIERISGLSQTQIAELADAYAAAERTIICYGMGITQHEHGTQNVQQLVNLLLMKGNIGKPGAGICPLRGHSNVQGDRTVGITEKPSAEFLARLGERYGFTPPHAPGHAAIASMQAICTGQARALICMGGNFALAMPDREASAVPLTQLDLAVHVATKLNRSHLLTARHSYILPVLGRSEIDMQKNGAQAVTVEDSMSMIHASRGVLKPAGVMLKSECAVVAGIAQAALPQSVVAWEYLVEDYDRIRNDIEAVLPEFADYNQRIRHPGGFHLINAAAERRWMTPSGKANFITSKGLLEDPSSAFNSKLVMATVRSHDQYNTTIYGMDDRYRGVFGQRDVVFMSAKQAKICRVKNGERVNLIALTPDGKRSSRRMDRLKVVIYPMADRSLVTYFPESNHMLTLDNHDPLSGIPGYKSIPVELEPSN | not soluble |
| MAQAKHKQRKRLKSSCKRHPLYVDFSDVGWNDWIVAPPGYHAFYCHGECPFPLADHLNSTNHAIVQTLVNSVNSKIPKACCVPTELSAISMLYLDENEKVVLKNYQDMVVEGCGCR | soluble |
| MSETVKLDVGGTIFKTSRSTLTKFNGFFKTMLESDIGLKIDESGSIFIDRSPKNFDLILNFMRDGDVVLPNCELKLKELLVEAQFYLLDGLIELCNSKIELVEAPKIKLRFIESDEQFLQILAVQQKPMLIIEFCMVGNDMSIPYNFNLYEFMEKYSHQFDIYFRKFFVHYPHKIVNSERLSEDEPSRKWKARIKWKPTENGYYSQFPHNLRINRGGRIIRDATFLERLEKMIGEFDEYLKKQRNR | not soluble |
| MAHHHHHHMAGSIRYFIDPRGALSPCAPAESSTPRAGGTKVPRTAEAKSSPNSPPELSSAVPLDGLCRAYEAADGRSGSAFLQVYSVGAHGLLSPEAKAVITGCTMAALRSRLSHLLGLLPHERLNGADSALGMSAVAVLNRYCRATAALPPPSPSAMQPRCGTDTDGGGMRGRGWVVTWALELVLCVAASRIVAGPPLATACPPLCVSDCGDVIMASLHFGLGVRLQRDAVAHHDERTIASSTPLTSAAERCPRYAALSVQLTECTPASSHPLDVRCAVDVTRVIYVNHIRSAQAHAEDGTDAFQRLARCEGGVSDPLSVATARDAWAEALQSYQASAIASQGGVLFVLTHDLSVQSGPAALLPLTVREERSRSHAAEMSHDVAFPPALRDHVLASVRVRSAPVYFNHILLCQAWSSDDVVAEAHARHWAEKLANDGALAPARVAVEWRASLLVSRAKGGAAVTSDAGGSQTLAPTPLQWVLYTARRQLVVAVANRSQVVLTGRRRGLDRTAAEATTKAAQFSPSALRALAEQCVKALPVARGLLGWHCPWPVPSCLQNTDTCTAIPSAAAVEEVLWTLRMLGKLRWRAAQLYEAAGDSAEQHRQLRALRADVQRWSSRRRARTLAADGTTLACEATAWTPTVEDVVCHVDDGDWGALTKELSSMLPPA | not soluble |
| MAHHHHHHMGKPKYLKKKQAAAAAGSEDGADKDVSDNTENTNGSPTTTNALGKQSEAAKEEPHSSGAMVSFANPVYRQGVNDILVEKLDISYQGNAILENATLNLVSGHRYGLVGPNGCGKSTLLRVLGCHEIPFPSHVDRYYVSQEVEASDMSALDAVLAVDKEREKLESEMEDLALGDQEDPHVLSRLDDIYKRLDELDADTAAARAGKILFGLGFTKEMQRRPTKAFSGGWRMRISLAQALFINPTVLLLDEPTNHLDIEAVVWLENYLSKFKKTLFMVSHSQDFMNNVCTDICHMHLKKLNCYDGNYDQYCITREEKESNQMKKYQWEQNQIKNMKEYIARFGHGSAKLARQAQSKEKTLAKMTRGGLTDAVVKDSRINFEFPCAGPLPPPMLQFREVSFNYPGRPSLFTNLDLGVNMDSRICLVGPNGAGKTTLTKLMCRELEPTAGYVAKNAHCVMARFHQHFVDQINMDLTPLEWMSQEYPDVTQPPILRSALGRFGVSGKAQMTPMKTLSDGQKSRVVFAWMAYKRPHFMILDEPTNHLDIESIDALADAINNFEGAVVVVSHDLRLLAQVADEIWIVEQGEAKRFNGDIADYKEHVQNEVNRMMQNYAASL | not soluble |
| GPGSMSEYADCTEVAKKALEFRQQFYQLLDNPERRGDIVALYAPNTPLLCEWNGHALPDTASIAAYLGGLPRTNHKVDCVDAQPLPGNERADSFLMTVHGVVTYDDEHKREFFQRFVIRKVEERYYIMNDYYRWLSEKE | not soluble |
| MNLRIPWKEVYYLGYNMGNYIKISEPELLFVLRNKPQIKDRLKLDEKTIIKEGVKKYKNFWEIYYTVKDLILRGYRVRFDGFFIELYEKGIIPGTIEQDYLVYPVSGEIRMTWGELLDIYNKAIARKSKFMLAIVDSEGDVTYYEFRKLRSNK | soluble |
| MRGEKRTFEMLTNEVEYQHYRFSFANNPATAAGIFQLAEIELTVVADAPLVDFASNISRAEIGENVQFWDRSLANPTGWQWTFEDGEPATSTNRNPAVTFTSLGAKSVTLVASNDKGSNEKVQEQVVHIWDSQNPWAGYVKPTVTLVAHKPEHEGQIAFSRVMPDIEAVIHDISLQIVKVLYKDVAEAPLFKTVTFETDEYDFPAAKSGTDEDMILMMDVAHLANKAAEGDDALRDEVIGMLWHELTHGYNNSPNSGEYATGDEYHSYLESLANYMRIKAGFHESRRVGIKWVDNWNVDAYEQTSFFLEWVANSHRSVDFIYLFNKAAGDLKEWSFEAAFKSIFGEDKGVSIFWQEYHDAQGIEPPYPTPVDGYRNFAVDEGVSISTNATTVIIPDWDAYEGEDKLIDNNVTKKFNAFIEGTWWLEEHASHLFPINDITNVEVTFELPDAIVLHKYSVTTGNDNPQRDPTLWTISGSVDGEVWTQLDSDNYPSDPERLITFHYDIDDAVTAYKYYQFVFENTQPAGDSIGGDNGRLVQIGEIALLTEELEHHHHHH | not soluble |
| MAVTQTRDAVIIGGGHNGLVCAFYLAKAGLKVTVCEARGVVGGAAVTEEFHPGFRNSVASYTVSLLNPRVIADMGLRELGLTFLERPISNFLPISDDKYIKLGGGLERTQEEFRKYSRRDAEVLPAYYAMLDEIGDILRDLAQETPPNLGDGLPGLLRALRQGGRLAFLSRQRKRDLLDLFTKSARDVLDGWFESEPVKAAFGFDAVVGNFASPDTPGSAYVLLHHTFGEVNGKKGAWGHAVGGMGAITQAMAKACEAAGVEILLDAPVEAVHIDGGKAAGVQLVDGRQIMAPIVSANVNPALLYKKLVPPSALTPDFRKAVDGYKNGSGTFRMNVALSELPSFTCLPGKETAEHHQSGIVIAPSLDYMDAAYRDAKGQGISKAPIVEMLIPSSLDTSLAPPGQHVASLFCQQFAPELPDGRSWDDAREAAADLIIDTVDQWAPGFKASVLGRMILSPLDLERKFGLIGGDIMHGHMSLDQLWATRPLLGHASHRAPIAGLYMCGAGTHPGGGVSGNPGRNAAREILRDKDFATAVKLSVVGRLEHHHHHH | not soluble |
| MTTRDLTAAYFQQTISANSNVLVYFWAPLCAPCDLFTPTYEASSRKHFDVVHGKVNIETEKDLASIAGVKLLPTLMAFKKGKLVFKQAGIANPAIMDNLVQQLRAYTFKSPAGEGIGPGTKTSS | soluble |
| MPGGVSSPVRAFKSVGGQPIVFDHVKGAHIWDVDGNQYIDYVGSWGPAIVGHAHPEVIDALHAALEKGTSFGAPCLLENILAEMVIAAVPSVEMVRFVNSGTEACMAVLRLMRAYTQREKVIKFEGCYHGHADMFLVKAGSGVATLGLPDSPGVPKATTAATLTAPYNDLEAVSRLFEQYPNDIAGVILEPVVGNAGFIPPDAGFLEGLRELTKQYGALLVFDEVMTGFRIAYGGAQEKFGVTPDLTTLGKVIGGGLPVGAYGGRAEIMKMVAPAGPVYQAGTLSGNPLAMTAGIKTLEILSRPGSYEHLDRITGKLVQGLLDAAREFGHEVCGGHISGMFGLFFTAGPVTNYEQAKQSDLKKFAAFHRGMLEQGIYLAPSQFEAGFTSLAHTEADIERTIAAARTVLSQL | soluble |
| MNVYFLGGGNMAAAVAGGLVKQGGYRIYIANRGAEKRERLEKELGVETSATLPELHSDDVLILAVKPQDMEAACKNIRTNGALVLSVAAGLSVGTLSRYLGGTRRIVRVMPNTPGKIGLGVSGMYAEAEVSETDRRIADRIMKSVGLTVWLDDEEKMHGITGISGSGPAYVFYLLDALQNAAIRQGFDMAEARALSLATFKGAVALAEQTGEDFEKLQKNVTSKGGTTHEAVEAFRRHRVAEAISEGVCACVRRSQEMERQYQ | soluble |
| MGSDKIHHHHHHMFKRKVISFDIGSKNIKLVEGKCDGDKVIVTNMDMIETPKNSMNDGSIVDINLIAEAVRKLIDKVSTRTKNVVFTSQSTSIITRTVEIPWAKEKDMKSMIKYDIEQYLPIDLNEYIIKHKVIDEFQKEEVKMVRANVVVYPKKMAKAYWSLVEELELKPMALEVSLSAMEKILSSKDIITINEKDYQKEDTIAIVDIGSDEIEMNIIANGNLEFTRVLMGGGAYIDSSISNELSVDMDVAEEKKIIFGDLTLDNFSGEKQIVNEAMKNVIDRWNSEILRMLDYFKNKNKDKQIKKVYVHGGTSQIPGLCQYMKNSLGISVELIKNISTVSLDKKLEDKDITNYINAIGSIIM | not soluble |
| GAMKNSFDRLIDGLAKDYGMPGFPEKKHEHEVYCFEFKEVSIRIYQDKFKWVYFLSDIGVIDNLDSNACQSLLRLNEFNLRTPFFTVGLNEKKDGVVHTRIPLLNLDNVEMRRVFEALLNLSGEVKKTFGFV | soluble |
| MGKQCFVTGRKASTGNNRSHALNSSKRRWNANLQKVRILVDGKPKKVWVSARALKSGKVTRVLEHHHHHH | not soluble |
| MFKVLAEAFASARLRLGAILFSPQSLAFLPAFCLGLYWYGGETALMITALVFPVFFLVARAKLAETVTTSRQDSVLGVMQPDGFQDIVAARFREARAGGLISTVFQIEIDDHTSLVERHGQRAAEVISTTSADRIAAVLRDRDAVTHLDTFKYAVCLEPVRQMDLELCIQLAGRIQAALEEPIALDATAVCITSSVGFCQQTKVLSRSGEAWLAAAGHALREAHLNGPGAIRAYSEKMQQKSEIRAELREEVAQALEKGQIKPWFQPQISTDTGLVTGFEALARWNHPKRGMVPPGAFLTAIEQAGMLEKLAEVMIFHAFTALKAWDSAGVCVPQVGVNFAGPELSNPKLVDKIIWELDRFDLAPERLAVEVLETVVANSPDDTITRNINGLSKLGCRIDLDDFGTGHASISSIRRFSVSRIKIDRSFVIKADRDPEQQRMISAILTMAERLEVETLAEGVESVGEHALLAQLGCDHVQGFGIGKPMPFDQTLDWIASHNAKLQATPQILPNKLRLEHHHHHH | soluble |
| MAIKFQYNKTSLQQQEKQLKMRERTLPTIKSKESALRLEVKRTKDEVERLERQLEEEIVGYRSMVSLWNEFKPDLISVEGVKLSAKKVAGVVVPVLDDISYTIKPFSLFNAPSWFAEGIDLLKNLAHTGIEAEFLGLKLEFLEYARKKTTQKVNLFEKVQIPGYKDAIRKIKRYLEDEESLSKSSQKIMRANMEKRNKGEEVMA | not soluble |
| MSLKLVGIIGSIADESYNRKLMLYIASHFKETIDIEILDIRDVPMFRVGMEMGPAVEYLNKKISAADGVIIATPEHNHTTTAALKSVIEWLSSSVHPFADKPVLLVGASYFEQGSGRAQLDLRQILESPGVNALVMPKDEFLLGNVKSAFDENGNLKEARTVGFLESVMGNFLKWIKVLKAMKKNNDVKGDWESEDLTASQEIDTTVKGVDMKAEDWVEQAAAKTNAVEGDTYVKLDRGLLTVNQLNWFLNTMPVELTFADDNNQFIYYNRMDENPKDMLAPRQPKQVGDPLESVHPERALKGVKHVVHTLRTGETDLVSMPVPFINKVNEKHVMHYYKAMHDEDGRYRGINEWVVDIWPVVESYLKMTGQKLVADENAKVDEGHHHHHH | soluble |
